Laboratory results: the RNAGym collection of RNA variant scans (doi:10.1021/acssynbio.7b00057)

B1: Pistol ribozyme (parent)
chain: GGGUCGUUGUUCCAUAAUCGCGUGGAUAUGGCACGCAAGUUUCUACCGGGCACCGUAAAUGUCCGACUGGAGCCGUUCGGGCGGCUAUAAACAGACCUCAGGCCCGAAGCGUGGCGGCACCUGCCGCCGGUGGUAAAAAAGAUCGGAAGAGCACACGUCU

Variants of: B1
Assay: aptazyme ON/OFF ratio, guanine; higher = stronger switching; co-transcriptional cleavage with and without guanine

| Variant | aptazyme ON/OFF ratio |
| --- | --- |
| U7G U8C U10G U11G C12U C13U | 1.34 |
| U7G U8C U10G U11G C12U C13A | 1.26 |
| U7G U8C U10G U11G C12U C13G | 1.29 |
| U7G U8G G9A U10C U11C C12U C13U | 1.13 |
| U7G U8G G9A U10C U11C C12U C13A | 1.04 |
| U7G U8G G9A U10C U11C C12U C13G | 1.36 |
| U7G U8G G9A U10A U11A C12U | 1.35 |
| U7G U8G G9A U10A U11A C12A | 1.19 |
| U7G U8G G9A U10A U11A C12G | 1.16 |
| U7G U8G G9A U10C C12G C13A | 1.26 |
| U7G U8G G9A U10C C12G C13U | 1.33 |
| U7G U8G G9A U10C C12G C13G | 1.16 |
| U7G U8C U11A C12G C13G | 1.07 |
| U7G U8C U11A C12G C13A | 1.09 |
| U7G U8C U11A C12G C13U | 1.12 |
| U7G U8C U11C C12A C13G | 1.26 |
| U7G U8C U11C C12A C13U | 1.46 |
| U7G U8C U11C C12A C13A | 1.37 |
| U7G U8C U10C U11C C12U C13U | 1.11 |
| U7G U8C U10C U11C C12U C13G | 1.12 |
| U7G U8C U10C U11C C12U C13A | 1.08 |

| Variant | aptazyme ON/OFF ratio |
| --- | --- |
| U7G U8G C12U C13U | 1.5 |
| U7G U8G C12U C13G | 1.39 |
| U7G U8G C12U C13A | 1.31 |
| U7G U8G G9A U10A U11C C12U | 1.1 |
| U7G U8G G9A U10A U11C C12G | 1.23 |
| U7G U8G G9A U10A U11C C12A | 1.21 |
| U7G U8C U10C U11G C12U | 1.3 |
| U7G U8C U10C U11G C12A | 1.24 |
| U7G U8C U10C U11G C12G | 1.15 |
| U7G U8C U10C U11G C12A C13U | 1.29 |
| U7G U8C U10C U11G C12A C13G | 1.22 |
| U7G U8C U10C U11G C12A C13A | 1.16 |
| U7G U8C U10C U11A C12G | 1.25 |
| U7G U8C U10C U11A C12A | 1.44 |
| U7G U8C U10C U11A C12U | 1.39 |
| U7G U8C U10C U11G C13U | 1.38 |
| U7G U8C U10C U11G C13A | 1.23 |
| U7G U8C U10C U11G C13G | 1.26 |
| U7G U8G G9A U10A C13G | 1.17 |
| U7G U8G G9A U10A C13A | 1.28 |
| U7G U8G G9A U10A C13U | 1.37 |

| Variant | aptazyme ON/OFF ratio |
| --- | --- |
| U7G U8G G9A C12G C13U | 1.3 |
| U7G U8G G9A C12G C13A | 1.14 |
| U7G U8G G9A C12G C13G | 1.14 |
| U7G U8C U10C U11A C12A C13A | 1.26 |
| U7G U8C U10C U11A C12A C13U | 1.21 |
| U7G U8C U10C U11A C12A C13G | 1.14 |
| U7G U8G G9A U10C C12A | 1.46 |
| U7G U8G G9A U10C C12U | 1.59 |
| U7G U8G G9A U10C C12G | 1.28 |
| U7G U8G G9A U10C U11C | 1.08 |
| U7G U8G G9A U10C U11G | 1.89 |
| U7G U8G G9A U10C U11A | 2.49 |
| U7G U8C U10G C12A | 1.33 |
| U7G U8C U10G C12G | 1.05 |
| U7G U8C U10G C12U | 1.36 |
| U7G U8C U11G | 1.01 |
| U7G U8C U11C | 1.53 |
| U7G U8C U11A | 1.39 |
| U7G U8C U10G U11C C12G C13G | 1.18 |
| U7G U8C U10G U11C C12G C13A | 1.28 |
| U7G U8C U10G U11C C12G C13U | 1.36 |

| Variant | aptazyme ON/OFF ratio |
| --- | --- |
| U7G U8G G9A U10C U11A C12G C13U | 1.17 |
| U7G U8G G9A U10C U11A C12G C13A | 1.04 |
| U7G U8G G9A U10C U11A C12G C13G | 1.18 |
| U7G U8G G9A C13A | 1.5 |
| U7G U8G G9A C13G | 1.17 |
| U7G U8G G9A C13U | 1.36 |
| U7G U8C U10G C12A C13U | 1.2 |
| U7G U8C U10G C12A C13G | 1.12 |
| U7G U8C U10G C12A C13A | 1.12 |
| U7G U8C U10G U11A C12U C13U | 1.17 |
| U7G U8C U10G U11A C12U C13G | 1.15 |
| U7G U8C U10G U11A C12U C13A | 1.13 |
| U7G U8G G9A U10A U11C C13G | 1.06 |
| U7G U8G G9A U10A U11C C13U | 1.05 |
| U7G U8G G9A U10A U11C C13A | 1.08 |
| U7G U8C U10C C13A | 1.07 |
| U7G U8C U10C C13G | 1.07 |
| U7G U8C U10C C13U | 1.64 |
| U7G U8C U10C U11G C12U C13G | 1.16 |
| U7G U8C U10C U11G C12U C13U | 1.31 |
| U7G U8C U10C U11G C12U C13A | 1.29 |
